Numbering of substitutions follows the chain as printed. In names and notes the source's numbering stands.
T1: CLAVATA2 (CLV2), wild type, tagged with GFP (Arabidopsis thaliana, UniProt O80809 26-720)
T1 construct: CLAVATA2 (CLV2), Arabidopsis thaliana, LRR receptor-like protein, wild type, from cDNA; also called CLV2-GFP; source: N. benthamiana, transiently expressed from an inducible vector, in living cells
T1 sequence (looked up): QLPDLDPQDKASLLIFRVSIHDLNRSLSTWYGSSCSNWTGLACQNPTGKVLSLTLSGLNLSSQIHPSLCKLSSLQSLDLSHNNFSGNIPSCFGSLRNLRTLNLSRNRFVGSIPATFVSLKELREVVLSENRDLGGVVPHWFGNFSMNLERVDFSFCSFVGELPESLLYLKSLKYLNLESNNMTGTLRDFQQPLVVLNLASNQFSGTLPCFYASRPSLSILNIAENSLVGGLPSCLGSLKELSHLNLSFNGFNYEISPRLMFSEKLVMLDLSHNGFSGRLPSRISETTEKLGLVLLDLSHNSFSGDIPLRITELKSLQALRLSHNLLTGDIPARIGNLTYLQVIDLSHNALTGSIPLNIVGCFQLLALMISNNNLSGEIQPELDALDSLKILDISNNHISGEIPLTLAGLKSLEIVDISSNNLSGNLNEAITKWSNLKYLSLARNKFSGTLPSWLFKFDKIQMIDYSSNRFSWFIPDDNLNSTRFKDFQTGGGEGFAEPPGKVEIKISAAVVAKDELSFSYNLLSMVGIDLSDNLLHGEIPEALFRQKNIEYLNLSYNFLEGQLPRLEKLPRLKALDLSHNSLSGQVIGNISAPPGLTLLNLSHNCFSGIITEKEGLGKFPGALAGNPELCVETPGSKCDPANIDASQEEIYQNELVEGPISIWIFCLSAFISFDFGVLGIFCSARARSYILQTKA

T2: CLAVATA2 (CLV2), wild type, tagged with mCherry (Arabidopsis thaliana, UniProt O80809 26-720)
T2 construct: CLAVATA2 (CLV2), Arabidopsis thaliana, LRR receptor-like protein, wild type, from cDNA; also called CLV2-mCherry; source: N. benthamiana, transiently expressed from an inducible vector, in living cells
T2 sequence (looked up): T1 sequence (looked up)

B1: CORYNE (CRN), wild type, tagged with mCherry (natural protein, Arabidopsis thaliana, UniProt Q9LYU7 34-401, looked up)
chain: TSCRRRTVKHLSTTSTSSTPLESRITSKVIVISIVSGILTGLVSALVLAFLVRSIVKFMKQTPILKGPVVFSPKITPKSLHAALSNGIQLLGSDLNGKYYKMVLDNGLVVAVKRLGSLEGVGSPESSSSKSVKRRLQKELELLAGLRHRNLMSLRAYVRESDEFSLVYDYMPNGSLEDVMNKVRTKEVELGWEIRLRVAVGIVKGLQYLHFSCETQILHYNLKPTNVMLDSEFEPRLADCGLAKIMPSSHTAVSCYSAPESSQSNRYTDKSDIFSFGMILGVLLTGRDPTHPFCEESASGGSLGQWLKHLQQSGEAREALDKTILGEEVEEDEMLMALRITIICLSDFPADRPSSDELVHMLTQLHSF
notes: CORYNE (CRN), Arabidopsis thaliana, wild type, from cDNA; the longer splice variant, not gene model AT5G13290.1; also called CRN-mCherry; source: N. benthamiana, transiently expressed from an inducible vector, in living cells
B2: CORYNE (CRN), wild type, tagged with GFP (natural protein, Arabidopsis thaliana, UniProt Q9LYU7 34-401, looked up)
chain: B1 chain
notes: CORYNE (CRN), Arabidopsis thaliana, wild type, from cDNA; Residue numbers (G70, S156, Q296) count on the longer splice variant, not on gene model AT5G13290.1, on which S156 is S131; also called CRN-GFP; source: N. benthamiana, transiently expressed from an inducible vector, in living cells
B3: CRN with S156A (phosphomute variant), tagged with GFP (natural protein, Arabidopsis thaliana, UniProt Q9LYU7 34-401, looked up)
chain: B1 chain with S123A
notes: CRN, Arabidopsis thaliana, serine 156 replaced with alanine; S156 is S131 on gene model AT5G13290.1 (the shorter splice variant); also called CR(SA)-GFP; CR(SA); source: N. benthamiana, transiently expressed, in living cells
B4: CRN with S156D (putative phosphomimetic variant), tagged with GFP (natural protein, Arabidopsis thaliana, UniProt Q9LYU7 34-401, looked up)
chain: B1 chain with S123D
notes: CRN, Arabidopsis thaliana, serine 156 replaced with aspartic acid; S156 is S131 on gene model AT5G13290.1 (the shorter splice variant); also called CR(SD)-GFP; CR(SD); source: N. benthamiana, transiently expressed, in living cells
B5: crn-1 variant of CRN (G70E in the predicted TMD), tagged with GFP (natural protein, Arabidopsis thaliana, UniProt Q9LYU7 34-401, looked up)
chain: B1 chain with G37E
notes: CRN, Arabidopsis thaliana, with the amino acid exchange G70E of the EMS-induced crn-1 allele in the predicted TMD; also called crn-1-GFP; source: N. benthamiana, transiently expressed, in living cells
B6: crn-3 variant of CRN (translational stop at Q296, kinase domain shortened by one third), tagged with GFP (domain or fragment, Arabidopsis thaliana, UniProt Q9LYU7 34-295, looked up)
chain: TSCRRRTVKHLSTTSTSSTPLESRITSKVIVISIVSGILTGLVSALVLAFLVRSIVKFMKQTPILKGPVVFSPKITPKSLHAALSNGIQLLGSDLNGKYYKMVLDNGLVVAVKRLGSLEGVGSPESSSSKSVKRRLQKELELLAGLRHRNLMSLRAYVRESDEFSLVYDYMPNGSLEDVMNKVRTKEVELGWEIRLRVAVGIVKGLQYLHFSCETQILHYNLKPTNVMLDSEFEPRLADCGLAKIMPSSHTAVSCYSAPESS
notes: signal peptide in the construct; CRN, Arabidopsis thaliana, truncated by the point mutation at Q296 of the EMS-induced crn-3 allele, which causes a translational stop; also called crn-3-GFP; source: N. benthamiana, transiently expressed, in living cells

Experiments:
Test in all cases: FRET or BRET; FRET-APB (acceptor photobleaching) in transiently transformed Nicotiana benthamiana cells; GFP donor, mCherry acceptor bleached in a region along the plasma membrane; apparent FRET efficiency as donor-dequenching in %
[1] = target: CLAVATA2 (CLV2), wild type, tagged with mCherry (Arabidopsis thaliana) (UniProt O80809)
[2] = target: chimeric protein of the CLV2 LRR-receptor and its TMD fused to the CRN kinase domain, tagged with GFP (Arabidopsis thaliana) (UniProt Q9LYU7)
[3] = target: CLV2 with the entire RxR motif deleted, tagged with GFP (Arabidopsis thaliana) (UniProt O80809)
[4] = target: CLV2 with the first conserved arginine of the RxR motif replaced with an alanine, tagged with GFP (Arabidopsis thaliana) (UniProt O80809)
[5] = target: T1, CLAVATA2 (CLV2), wild type, tagged with …; conditions: partners not purified
[6] = target: T2, CLAVATA2 (CLV2), wild type, tagged with …; conditions: partners not purified

Molecule | D-d (%) (donor-dequenching, apparent FRET efficiency) [1] | D-d (%) (donor-dequenching, apparent FRET efficiency) [6] | further results
CRN lacking the entire extracellular domain, tagged with GFP (from UniProt Q9LYU7 34-62) (natural protein) | 7.2% |  | 
chimera of CRN in which the kinase is replaced with the kinase domain of CLV1, tagged with GFP (from UniProt Q9SYQ8 692-968) | 10.3% |  | 
CRN lacking the proximal part of the extracellular domain adjacent to the TMD, tagged with GFP (from UniProt Q9LYU7 34-62) (natural protein) | 10.5% |  | 
shortened CRN protein lacking the kinase, tagged with GFP (domain or fragment) | 24.5% |  | 
CRN lacking the N-terminal, distal part of the extracellular domain, tagged with GFP (from UniProt Q9LYU7 34-62) (natural protein) | 11.2% |  | 
B1 |  |  | D-d (%) (donor-dequenching, apparent FRET efficiency) [2]: 5.7%; D-d (%) (donor-dequenching, apparent FRET efficiency) [3]: 11.4%; D-d (%) (donor-dequenching, apparent FRET efficiency) [4]: 14.2%; D-d (%) (donor-dequenching, apparent FRET efficiency) [5]: 11.7%
B2 |  | 10.5% | 
B3 |  | 13.5% | 
B4 |  | 12.2% | 
B5 |  | 5.2% | 
B6 |  | 18.3% | 
